Results published in the supplement of paper PMC11316812.
± gives the standard deviation of the averaged measurements.

What was measured:
[1] = tested on: hTERT-HMEC; experiment: percentage of EdU-negative (G0-arrested) nuclei per well, 72 h; higher = more G0 arrest; conditions: reference: sequence is the full UniProt precursor, the tested protein was the secreted form or ectodomain
[2] = tested on: MCF7; experiment: as above; conditions: reference: sequence is the full UniProt precursor, the tested protein was the secreted form or ectodomain
[3] = protein concentration 0.0225 µM
[4] = protein concentration 0.00857143 µM
[5] = protein concentration 0.0857143 µM
[6] = protein concentration 0.03125 µM
[7] = protein concentration 0.3125 µM
[8] = protein concentration 0.0173575 µM
[9] = protein concentration 0.173575 µM
[10] = protein concentration 0.01775 µM
[11] = protein concentration 0.1775 µM
[12] = protein concentration 0.01175 µM
[13] = protein concentration 0.1175 µM
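Also: secreted proteins added to cultured cells, EdU pulse at the end, nuclei found by Hoechst imaging, EdU status from nuclear versus surrounding ring intensity ratio, PBS as neutral control.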

MWDLVLSIALSVGCTGAVPLIQSRIVGGWECEKHSQPWQVAVYSHGWAHCGGVLVHPQWVLTAAHCLKKNSQVWLGRHNLFEPEDTGQRVPVSHSFPHPLYNMSLLKHQSLRPDEDSSHDLMLLRLSEPAKITDVVKVLGLPTQEPALGTTCYASGWGSIEPEEFLRPRSLQCVSLHLLSNDMCARAYSEKVTEFMLCAGLWTGGKDTCGGDSGGPLVCNGVLQGITSWGPEPCALPEKPAVYTKVVHYRKWIKDTIAANP
percentage of EdU-negative [1, 3]: 4.38 ± 0.36%
percentage of EdU-negative ([1]; protein concentration 0.225 µM): 5.65 ± 0.28%
percentage of EdU-negative [2, 3]: 23.8 ± 1.7%
percentage of EdU-negative ([2]; protein concentration 0.225 µM): 24.8 ± 1.2%

MLLLPFQLLAVLFPGGNSEHAFQGPTSFHVIQTSSFTNSTWAQTQGSGWLDDLQIHGWDSDSGTAIFLKPWSKGNFSDKEVAELEEIFRVYIFGFAREVQDFAGDFQMKYPFEIQGIAGCELHSGGAIVSFLRGALGGLDFLSVKNASCVPSPEGGSRAQKFCALIIQYQGIMETVRILLYETCPRYLLGVLNAGKADLQRQVKPEAWLSSGPSPGPGRLQLVCHVSGFYPKPVWVMWMRGEQEQQGTQLGDILPNANWTWYLRATLDVADGEAAGLSCRVKHSSLEGQDIILYWRNPTSIGSIVLAIIVPSLLLLLCLALWYMRRRSYQNIP
percentage of EdU-negative [1, 3]: 5.01 ± 0.84%
percentage of EdU-negative ([1]; protein concentration 0.225 µM): 6.06 ± 0.84%
percentage of EdU-negative [2, 3]: 25.9 ± 0.97%
percentage of EdU-negative ([2]; protein concentration 0.225 µM): 24.2 ± 1.6%

MSVPLLKIGVVLSTMAMITNWMSQTLPSLVGLNTTKLSAAGGGTLDRSTGVLPTNPEESWQVYSSAQDSEGRCICTVVAPQQTMCSRDARTKQLRQLLEKVQNMSQSIEVLDRRTQRDLQYVEKMENQMKGLESKFKQVEESHKQHLARQFKAIKAKMDELRPLIPVLEEYKADAKLVLQFKEEVQNLTSVLNELQEEIGAYDYDELQSRVSNLEERLRACMQKLACGKLTGISDPVTVKTSGSRFGSWMTDPLAPEGDNRVWYMDGYHNNRFVREYKSMVDFMNTDNFTSHRLPHPWSGTGQVVYNGSIYFNKFQSHIIIRFDLKTETILKTRSLDYAGYNNMYHYAWGGHSDIDLMVDESGLWAVYATNQNAGNIVVSRLDPVSLQTLQTWNTSYPKRSAGEAFIICGTLYVTNGYSGGTKVHYAYQTNASTYEYIDIPFQNKYSHISMLDYNPKDRALYAWNNGHQILYNVTLFHVIRSDEL
percentage of EdU-negative [1, 4]: 4.93 ± 0.14%
percentage of EdU-negative [1, 5]: 9.49 ± 1.4%
percentage of EdU-negative [2, 4]: 25.5 ± 3.5%
percentage of EdU-negative [2, 5]: 29.3 ± 2.1%

MPPSGPRGTLLLLPLLLLLLLRAVLAVPLERGAPNKEETPATESPDTGLYYHRYLQEVIDVLETDGHFREKLQAANAEDIKSGKLSRELDFVSHHVRTKLDELKRQEVSRLRMLLKAKMDAEQDPNVQVDHLNLLKQFEHLDPQNQHTFEARDLELLIQTATRDLAQYDAAHHEEFKRYEMLKEHERRRYLESLGEEQRKEAERKLEEQQRRHREHPKVNVPGSQAQLKEVWEELDGLDPNRFNPKTFFILHDINSDGVLDEQELEALFTKELEKVYDPKNEEDDMREMEEERLRMREHVMKNVDTNQDRLVTLEEFLASTQRKEFGDTGEGWETVEMHPAYTEEELRRFEEELAAREAELNAKAQRLSQETEALGRSQGRLEAQKRELQQAVLHMEQRKQQQQQQQGHKAPAAHPEGQLKFHPDTDDVPVPAPAGDQKEVDTSEKKLLERLPEVEVPQHL
percentage of EdU-negative [1, 6]: 4.94 ± 0.37%
percentage of EdU-negative [1, 7]: 7.16 ± 0.53%
percentage of EdU-negative [2, 6]: 24.1 ± 0.73%
percentage of EdU-negative [2, 7]: 26.9 ± 1.6%

MRAAPLLLARAASLSLGFLFLLFFWLDRSVLAKELKFVTLVFRHGDRSPIDTFPTDPIKESSWPQGFGQLTQLGMEQHYELGEYIRKRYRKFLNESYKHEQVYIRSTDVDRTLMSAMTNLAALFPPEGVSIWNPILLWQPIPVHTVPLSEDQLLYLPFRNCPRFQELESETLKSEEFQKRLHPYKDFIATLGKLSGLHGQDLFGIWSKVYDPLYCESVHNFTLPSWATEDTMTKLRELSELSLLSLYGIHKQKEKSRLQGGVLVNEILNHMKRATQIPSYKKLIMYSAHDTTVSGLQMALDVYNGLLPPYASCHLTELYFEKGEYFVEMYYRNETQHEPYPLMLPGCSPSCPLERFAELVGPVIPQDWSTECMTTNSHQGTEDSTD
percentage of EdU-negative [1, 8]: 5.15 ± 0.62%
percentage of EdU-negative [1, 9]: 5.55 ± 0.26%
percentage of EdU-negative [2, 8]: 26.5 ± 0.46%
percentage of EdU-negative [2, 9]: 27.8 ± 1.6%

MIRTLLLSTLVAGALSCGDPTYPPYVTRVVGGEEARPNSWPWQVSLQYSSNGKWYHTCGGSLIANSWVLTAAHCISSSRTYRVGLGRHNLYVAESGSLAVSVSKIVVHKDWNSNQISKGNDIALLKLANPVSLTDKIQLACLPPAGTILPNNYPCYVTGWGRLQTNGAVPDVLQQGRLLVVDYATCSSSAWWGSSVKTSMICAGGDGVISSCNGDSGGPLNCQASDGRWQVHGIVSFGSRLGCNYYHKPSVFTRVSNYIDWINSVIANN
percentage of EdU-negative [1, 10]: 6.83 ± 1.7%
percentage of EdU-negative [1, 11]: 24.7 ± 3.9%
percentage of EdU-negative [2, 10]: 23.79 ± 0.23%
percentage of EdU-negative [2, 11]: 29.6 ± 2.2%

MKLLFPIFASLMLQYQVNTEFIGLRRCLMGLGRCRDHCNVDEKEIQKCKMKKCCVGPKVVKLIKNYLQYGTPNVLNEDVQEMLKPAKNSSAVIQRKHILSVLPQIKSTSFFANTNFVIIPNATPMNSATISTMTPGQITYTATSTKSNTKESRDSATASPPPAPPPPNILPTPSLELEEAEEQ [Q9H1M3]
percentage of EdU-negative [1, 3]: 4.86 ± 0.34%
percentage of EdU-negative ([1]; protein concentration 0.225 µM): 4.66 ± 0.73%
percentage of EdU-negative [2, 3]: 23.2 ± 1.2%
percentage of EdU-negative ([2]; protein concentration 0.225 µM): 25.3 ± 1.1%

MRLLPLAPGRLRRGSPRHLPSCSPALLLLVLGGCLGVFGVAAGTRRPNVVLLLTDDQDEVLGGMTPLKKTKALIGEMGMTFSSAYVPSALCCPSRASILTGKYPHNHHVVNNTLEGNCSSKSWQKIQEPNTFPAILRSMCGYQTFFAGKYLNEYGAPDAGGLEHVPLGWSYWYALEKNSKYYNYTLSINGKARKHGENYSVDYLTDVLANVSLDFLDYKSNFEPFFMMIATPAPHSPWTAAPQYQKAFQNVFAPRNKNFNIHGTNKHWLIRQAKTPMTNSSIQFLDNAFRKRWQTLLSVDDLVEKLVKRLEFTGELNNTYIFYTSDNGYHTGQFSLPIDKRQLYEFDIKVPLLVRGPGIKPNQTSKMLVANIDLGPTILDIAGYDLNKTQMDGMSLLPILRGASNLTWRSDVLVEYQGEGRNVTDPTCPSLSPGVSQCFPDCVCEDAYNNTYACVRTMSALWNLQYCEFDDQEVFVEVYNLTADPDQITNIAKTIDPELLGKMNYRLMMLQSCSGPTCRTPGVFDPGYRFDPRLMFSNRGSVRTRRFSKHLL
percentage of EdU-negative [1, 12]: 5.009 ± 0.019%
percentage of EdU-negative [1, 13]: 5.44 ± 1.4%
percentage of EdU-negative [2, 12]: 25.19 ± 0.18%
percentage of EdU-negative [2, 13]: 25.1 ± 1.3%
